T1: mouse GPNMB endogenously expressed on B16F10 cells (mouse, UniProt Q99P91 23-574)
T1 construct: whole, on cells; also called moGPNMB
T1 sequence (looked up): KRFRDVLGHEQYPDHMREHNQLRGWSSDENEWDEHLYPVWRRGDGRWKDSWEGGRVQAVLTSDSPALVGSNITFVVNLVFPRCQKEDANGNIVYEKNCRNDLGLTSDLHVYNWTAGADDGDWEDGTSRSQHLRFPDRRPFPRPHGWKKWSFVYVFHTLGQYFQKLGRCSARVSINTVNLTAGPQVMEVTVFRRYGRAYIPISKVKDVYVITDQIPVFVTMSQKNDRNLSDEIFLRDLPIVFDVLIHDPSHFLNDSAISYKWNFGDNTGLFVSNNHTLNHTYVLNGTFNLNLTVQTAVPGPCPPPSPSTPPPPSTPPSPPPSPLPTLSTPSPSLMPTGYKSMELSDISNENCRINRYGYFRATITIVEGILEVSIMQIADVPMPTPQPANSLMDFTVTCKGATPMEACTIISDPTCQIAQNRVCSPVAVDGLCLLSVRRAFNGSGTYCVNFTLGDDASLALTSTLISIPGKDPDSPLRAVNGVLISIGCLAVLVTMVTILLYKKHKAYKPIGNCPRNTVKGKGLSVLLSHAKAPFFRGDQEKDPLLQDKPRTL

T2: soluble mouse GPNMB (recombinant extracellular domain) (mouse, UniProt Q99P91 23-502)
T2 construct: also called moGPNMB; not shown: C-terminal polyhistidine or Avi-His tag
T2 sequence: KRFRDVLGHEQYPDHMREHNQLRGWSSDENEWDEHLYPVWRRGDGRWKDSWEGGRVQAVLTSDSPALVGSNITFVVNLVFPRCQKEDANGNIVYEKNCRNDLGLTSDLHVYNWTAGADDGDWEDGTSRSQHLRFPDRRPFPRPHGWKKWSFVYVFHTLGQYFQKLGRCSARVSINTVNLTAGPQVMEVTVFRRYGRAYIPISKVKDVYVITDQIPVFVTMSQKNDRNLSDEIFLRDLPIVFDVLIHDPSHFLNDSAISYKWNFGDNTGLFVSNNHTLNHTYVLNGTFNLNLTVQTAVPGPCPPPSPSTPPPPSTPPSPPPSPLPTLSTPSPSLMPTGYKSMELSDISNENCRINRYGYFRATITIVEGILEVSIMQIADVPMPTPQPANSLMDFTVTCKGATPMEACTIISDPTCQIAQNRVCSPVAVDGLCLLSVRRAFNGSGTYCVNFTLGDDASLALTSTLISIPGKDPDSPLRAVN

T3: soluble human GPNMB (recombinant extracellular domain) (human, UniProt Q14956 23-498)
T3 construct: also called huGPNMB; recombinant human GPNMB extracellular domain; not shown: C-terminal polyhistidine or Avi-His tag
T3 sequence: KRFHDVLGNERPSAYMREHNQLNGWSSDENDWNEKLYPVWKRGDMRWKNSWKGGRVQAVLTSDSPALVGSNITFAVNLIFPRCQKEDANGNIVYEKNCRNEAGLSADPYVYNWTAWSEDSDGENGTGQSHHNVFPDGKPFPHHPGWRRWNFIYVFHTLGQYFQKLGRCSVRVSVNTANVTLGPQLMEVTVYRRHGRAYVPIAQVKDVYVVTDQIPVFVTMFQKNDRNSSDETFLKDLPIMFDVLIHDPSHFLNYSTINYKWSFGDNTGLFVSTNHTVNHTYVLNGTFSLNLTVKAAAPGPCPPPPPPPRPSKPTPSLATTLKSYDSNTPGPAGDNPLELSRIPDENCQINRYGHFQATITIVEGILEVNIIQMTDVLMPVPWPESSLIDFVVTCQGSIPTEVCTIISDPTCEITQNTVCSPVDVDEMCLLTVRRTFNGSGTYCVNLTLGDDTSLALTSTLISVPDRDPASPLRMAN


What was measured:
[1] = molecular target: T1, mouse GPNMB endogenously expressed on …; experiment: FACS titration, B16F10 cells
Description: Affinity matured anti-GPNMB antibodies of the present disclosure were examined to determine their ability to bind human and mouse GPNMB expressed on FS293-huGPNMB+ or B16F10 cells, respectively. Cell-based affinity measurements were performed to ascertain the apparent affinities of anti-GPNMB antibodies to cell-surface expressed GPNMB. Serial dilutions of anti-GPNMB antibodies of the present disclosure were added to 100,000 FS293-huGPNMB+ or B16F10 cells and allowed to achieve binding equilibrium at 4° C. After addition of fluorescently labeled secondary antibody and brief washing steps, MFI values as a function of titrated antibody concentration were recorded via FACS analysis. Equilibrium binding curves were fit using nonlinear regression analysis with Graphpad Prism 6 software.

[2] = molecular target: T2, soluble mouse GPNMB (recombinant …); experiment: SPR Biacore, IgG captured
Description: (§1) Binding kinetics of the humanized and affinity matured anti-GPNMB antibodies described above were evaluated using the Biacore T200 (Cytiva). Briefly, IgGs were diluted to 10 μg/mL and captured using a Protein A/G (ThermioFisher, #21186) surface on a CM5 chip that was prepared by amine coupling according to the instrument manufacturer's recommendations. The captured antibodies were tested for their ability to bind human, cynomolgus monkey, and mouse GPNMB recombinant proteins as follows.
(§2) Human, cynomolgus, and mouse GPNMB analytes were diluted in running buffer (HBS-EP+, Teknova, #8022, with 0.5 mg/ml BSA, MP Biomedicals LLC, #820451), to a concentration of 300 nM, then diluted 3-fold serially to 100 nM, 33 nM, and 11 nM. Each sample was injected for 2 minutes to allow association, followed by dissociation in buffer alone for 10 minutes. Each sample injection was followed by the regeneration of the chip with three 30-second injections of 10 mM glycine, pH 1.7. Fresh antibody was captured at the beginning of each cycle.
(§3) Data were analyzed using Biacore evaluation software to generate kinetic constants. The equilibrium dissociation constants (KD) were calculated from the fitted association and dissociation rate constants (k-on and k-off) for each of the anti-GPNMB antibodies.

[3] = molecular target: T3, soluble human GPNMB (recombinant …); experiment: SPR Biacore, IgG captured
Description: as §1, §2, §3

| Binder | EC50 [1] [nM] | Kd [2] [nM] | koff [2] [s⁻¹] | kon [2] [M⁻¹ s⁻¹] | Kd [3] [nM] | koff [3] [s⁻¹] | kon [3] [M⁻¹ s⁻¹] |
| --- | --- | --- | --- | --- | --- | --- | --- |
| anti-GPNMB antibody GPN-83 (antibody, V domains shown) VH: QVQLQESGPGLVKPSETLSLTCTVSGISITTGNYRWSWIRQPPGKGLEWIGYIDYSGTITYNPSLKSRVTITRDTSKNQFSLELSSVTAADTAVYYCARDLTHWYFDVWGQGTLVTVSS VL: DIVMTQSPDSLAVSLGERATINCKSSRSVDYYGIGFVNWYQQKPGQPPKLLIYATSIQGSGVPDRFSGSGSGTDFTLTISSLQAEDVAVYYCQQQKEVPPTFGGGTKVEIK | 0.293 | 1.5 | 0.00024 | 160000 | 7.5 | 0.0016 | 210000 |
| anti-GPNMB antibody GPN-86 (antibody, V domains shown) VH: QVQLQESGPGLVKPSETLSLTCTVSGISITTGNYRWSWIRQPPGKGLEWIGYIDYSGTITYNPSLKSRVTITRDTSKNQFSLELSSVTAADTAVYYCARDLTHWYFDVWGQGTLVTVSS VL: DIVMTQSPDSLAVSLGERATINCKSSRSVDYYGIGFLNWYQQKPGQPPKLLIYATSKQGSGVPDRFSGSGSGTDFTLTISSLQAEDVAVYYCQQQKEVPPTFGGGTKVEIK | 0.178 | 1.2 | 0.00023 | 190000 | 4.5 | 0.0012 | 260000 |
| anti-GPNMB antibody GPN-84 (antibody, V domains shown) VH: QVQLQESGPGLVKPSETLSLTCTVSGISITTGNYRWSWIRQPPGKGLEWIGYIDYSGTITYNPSLKSRVTITRDTSKNQFSLELSSVTAADTAVYYCARDLTHWYYDVWGQGTLVTVSS VL: DIVMTQSPDSLAVSLGERATINCKSSRSVDYYGIGFVNWYQQKPGQPPKLLIYATSIQGSGVPDRFSGSGSGTDFTLTISSLQAEDVAVYYCQQQKEVPPTFGGGTKVEIK | 0.33 | 2.1 | 0.00034 | 160000 | 9.6 | 0.0021 | 220000 |
| anti-GPNMB antibody GPN-85 (antibody, V domains shown) VH: QVQLQESGPGLVKPSETLSLTCTVSGISITTGNYRWSWIRQPPGKGLEWIGYIDYSGTITYNPSLKQRVTITRDTSKNQFSLELSSVTAADTAVYYCARDLTHWYFDVWGQGTLVTVSS VL: DIVMTQSPDSLAVSLGERATINCKSSRSVDYFGIGFLNWYQQKPGQPPKLLIYATSHQGSGVPDRFSGSGSGTDFTLTISSLQAEDVAVYYCQQQKEVPPTFGGGTKVEIK | 0.317 | 0.5 | 7.4e-05 | 140000 | 1 | 0.00018 | 170000 |
| anti-GPNMB antibody GPN-87 (antibody, V domains shown) VH: QVQLQESGPGLVKPSETLSLTCTVSGISITTGNYRWSWIRQPPGKGLEWIGYIDYSGTITYNPSLKSRVTITRDTSKNQFSLELSSVTAADTAVYYCARDLTHWYYDVWGQGTLVTVSS VL: DIVMTQSPDSLAVSLGERATINCKSSRSVDYYGIGFLNWYQQKPGQPPKLLIYATSKQGSGVPDRFSGSGSGTDFTLTISSLQAEDVAVYYCQQQKEVPPTFGGGTKVEIK | 0.37 | 1.5 | 0.00028 | 190000 | 5.4 | 0.0013 | 250000 |

Second part, the binder after the results:

| EC50 [1] [nM] | Kd [2] [nM] | koff [2] [s⁻¹] | kon [2] [M⁻¹ s⁻¹] | Kd [3] [nM] | koff [3] [s⁻¹] | kon [3] [M⁻¹ s⁻¹] | Binder |
| --- | --- | --- | --- | --- | --- | --- | --- |
| 0.262 | 1.1 | 0.00017 | 150000 | 3.1 | 0.00063 | 200000 | anti-GPNMB antibody GPN-88 (antibody, V domains shown) VH: QVQLQESGPGLVKPSETLSLTCTVSGISITTGNYRWSWIRQPPGKGLEWIGYIDYSGTITYNPSLKSRVTITRDTSKNQFSLELSSVTAADTAVYYCARDLTHWYFDVWGQGTLVTVSS VL: DIVMTQSPDSLAVSLGERATINCKSSRSVDYYGIGFLNWYQQKPGQPPKLLIYATSHQGSGVPDRFSGSGSGTDFTLTISSLQAEDVAVYYCQQQKHVPPTFGGGTKVEIK |
| 0.443 | 0.8 | 0.00012 | 160000 | 2.9 | 0.00057 | 200000 | anti-GPNMB antibody GPN-89 (antibody, V domains shown) VH: QVQLQESGPGLVKPSETLSLTCTVSGISITTGNYRWSWIRQPPGKGLEWIGYIDYSGTITYNPSLKSRVTITRDTSKNQFSLELSSVTAADTAVYYCARDLTHWYYDVWGQGTLVTVSS VL: DIVMTQSPDSLAVSLGERATINCKSSRSVDYYGIGFLNWYQQKPGQPPKLLIYATSHQGSGVPDRFSGSGSGTDFTLTISSLQAEDVAVYYCQQQKEVPPTFGGGTKVEIK |
| 0.416 | 0.7 | 0.00011 | 160000 | 2.8 | 0.00053 | 190000 | anti-GPNMB antibody GPN-90 (antibody, V domains shown) VH: QVQLQESGPGLVKPSETLSLTCTVSGISITTGNYRWSWIRQPPGKGLEWIGYIDYSGTITYNPSLKQRVTITRDTSKNQFSLELSSVTAADTAVYYCARDLTHWYFDVWGQGTLVTVSS VL: DIVMTQSPDSLAVSLGERATINCKSSRSVDYYGIGFLNWYQQKPGQPPKLLIYATSHQGSGVPDRFSGSGSGTDFTLTISSLQAEDVAVYYCQQQKEVPPTFGGGTKVEIK |
| 0.273 | 1.1 | 0.00014 | 140000 | 3 | 0.00053 | 180000 | anti-GPNMB antibody GPN-91 (antibody, V domains shown) VH: QVQLQESGPGLVKPSETLSLTCTVSGISITTGNYRWSWIRQPPGKGLEWIGYIDYSGTITYNPSLKSRVTITRDTSKNQFSLELSSVTAADTAVYYCARDLTHWYFDVWGQGTLVTVSS VL: DIVMTQSPDSLAVSLGERATINCKSSRSVDYYGIGFLNWYQQKPGQPPKLLIYATSHQGSGVPDRFSGSGSGTDFTLTISSLQAEDVAVYYCQQQKERPPTFGGGTKVEIK |

From patent US20250270343A1 (Alector, published 2025)
